According to the supplement of paper PMC10724198:
± gives the standard deviation of the averaged measurements.
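Also: PSI is a weighted mean of sequencing reads over stability bins, variants kept only with over 10 reads, mCherry proximal and sfGFP distal, peptide attached via GGGS linker.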

Each sequence was assayed on Saccharomyces cerevisiae (assay: protein stability index of tFT-peptide fusion (C-terminal peptide) (PSI (0-1 scale)); higher = more stable (slower turnover)). Conditions: genetic background: wild type; temperature: 30 C.
Method: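 Multiplexed protein stability (MPS) profiling in S. cerevisiae. Random 12-aa peptides (tFT-X12 library) are fused to the C-terminus of a sfGFP-mCherry tandem fluorescent timer, after mCherry and a GGGS linker. Cells are FACS-sorted into 8 mCherry/sfGFP bins and deep-sequenced. The protein stability index (PSI) is the read-weighted bin average, scaled from 0 (unstable) to 1 (stable). Only peptides with >10 reads are reported; cells were grown at 30 °C in SC-His with glucose.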
AAASWRVRIGRG was tested, and the protein stability index was 0.7425 ± 0.004. For AAFERRDPDLKV, the protein stability index was 0.766 ± 0.062. Work on AAIPPPLHTWRY yielded a protein stability index of 0.722 ± 0.054. AANRCSVLPLGF gave a protein stability index of 0.601 ± 0.041. AAPPPAPPPPPR was tested, and the protein stability index was 0.694 ± 0.0082. AAPSPHPLNSLS was tested, and the protein stability index was 0.687 ± 0.036. AAQHNSLRGGPP showed a protein stability index of 0.731 ± 0.036. For AASPRDPQKDHA, the protein stability index was 0.711 ± 0.057. For AAVSRPLPLGPP, the protein stability index was 0.693 ± 0.075. AAYGCSGGEVGW showed a protein stability index of 0.68 ± 0.025. ACDFCIPGVRLD was tested, and the protein stability index was 0.745 ± 0.022. With ACDGIRRPVRGG the protein stability index was 0.697 ± 0.059. In the case of ACEAERRTFRWV, the protein stability index is reported as 0.66 ± 0.012. ACGGVWASGRGG showed a protein stability index of 0.705 ± 0.017. For ACGLVSTSWYGA, the protein stability index was 0.713 ± 0.086. ACLCFIEFRCLL showed a protein stability index of 0.547 ± 0.017. With ACLWRLSWVLGK the protein stability index was 0.641 ± 0.037. ACLYDSMSVSSK was tested, and the protein stability index was 0.6386 ± 0.0012. With ACSPGHCTTGTS the protein stability index was 0.649 ± 0.021. For ACTWASSSLARG, the protein stability index was 0.735 ± 0.027. In the case of ACVGGGGMKVLG, the protein stability index is reported as 0.713 ± 0.065. ADLEQTWRYRLD gave a protein stability index of 0.674 ± 0.031. ADSVVAGKGASV was tested, and the protein stability index was 0.686 ± 0.031. For ADTIKRTKRSYP, the protein stability index was 0.643 ± 0.1. AECMLGLFSGVL was tested, and the protein stability index was 0.73 ± 0.033. With AEFSLFRPHSAA the protein stability index was 0.649 ± 0.11. AEGPAGNRGLGG gave a protein stability index of 0.6564 ± 0.0058. AEHSIFQLFPKD was tested, and the protein stability index was 0.7034 ± 0.002. For AELPPETKRLTR, the protein stability index was 0.626 ± 0.04. Sequence AERCCLHPPIPA has a protein stability index of 0.541 ± 0.033. AFFLVLSAFRWI gave a protein stability index of 0.541 ± 0.091. AFFRPGISRPYG gave a protein stability index of 0.71 ± 0.0072. For AFFSFLFSNSFL, the protein stability index was 0.664 ± 0.0082. AFFYLRGQESLL gave a protein stability index of 0.688 ± 0.077. In the case of AFHFFLIPHSFF, the protein stability index is reported as 0.639 ± 0.025. For AFICGWSVGFGW, the protein stability index was 0.697 ± 0.0072. Sequence AFLLAVIRSSCV has a protein stability index of 0.55 ± 0.031. AFNPLPPFPLGF was tested, and the protein stability index was 0.706 ± 0.034. For AGAIWGGDSGVG, the protein stability index was 0.607 ± 0.047. In the case of AGAWGREVVGWG, the protein stability index is reported as 0.708 ± 0.033. In the case of AGEGGRKGGGSR, the protein stability index is reported as 0.676 ± 0.014. AGGAVGEAGSEG was tested, and the protein stability index was 0.6939 ± 0.0027. In the case of AGGGNGGGGGEK, the protein stability index is reported as 0.663 ± 0.019. For AGGKRGGDGRWQ, the protein stability index was 0.668 ± 0.014. With AGGLCLGGVGLG the protein stability index was 0.674 ± 0.079. In the case of AGGLHRSRPCVD, the protein stability index is reported as 0.709 ± 0.024. Sequence AGGSGGEAGSEG has a protein stability index of 0.655 ± 0.043. For AGGWVGAEGCGG, the protein stability index was 0.763 ± 0.024. With AGHGTHSNSPFA the protein stability index was 0.693 ± 0.074. Work on AGLGWGARQGAL yielded a protein stability index of 0.67 ± 0.019. Work on AGLVPSSLQSVS yielded a protein stability index of 0.695 ± 0.019. Sequence AGPGMARERYFY has a protein stability index of 0.634 ± 0.046. Sequence AGPPPERDPGAS has a protein stability index of 0.684 ± 0.069. For AGPWMESPTKSC, the protein stability index was 0.702 ± 0.023. AGQGGWREAGGG was tested, and the protein stability index was 0.676 ± 0.027. AGRAVAAAVRED was tested, and the protein stability index was 0.728 ± 0.076. AGRGRHPRSTWR showed a protein stability index of 0.688 ± 0.053. Sequence AGRSAHMEVRHE has a protein stability index of 0.712 ± 0.047. Sequence AGTCVSVGVHRY has a protein stability index of 0.599 ± 0.051. In the case of AGVRFLVIPRPP, the protein stability index is reported as 0.7182 ± 0.004. AGVVCGGGWWWA was tested, and the protein stability index was 0.772 ± 0.12. With AGWPAGARARAP the protein stability index was 0.712 ± 0.016. For AHFSRRCKGLFG, the protein stability index was 0.741 ± 0.01. AHQGSENRNMSV was tested, and the protein stability index was 0.688 ± 0.043. AIFAPPFPPTPV gave a protein stability index of 0.69 ± 0.071. Sequence AILFGSSSWVVV has a protein stability index of 0.659 ± 0.032. AIRPPLPPPTPL showed a protein stability index of 0.674 ± 0.046. With AIRSSRMPLGSA the protein stability index was 0.668 ± 0.07. AISAGRTFVEVV was tested, and the protein stability index was 0.657 ± 0.067. Work on AKKKHHKYRRNG yielded a protein stability index of 0.6542 ± 0.0048. In the case of AKLDMARGGGVV, the protein stability index is reported as 0.645 ± 0.018. AKYNISTMTGHT was tested, and the protein stability index was 0.695 ± 0.024. ALCVPRTGPFFI gave a protein stability index of 0.737 ± 0.02. ALHYEVVGRGYL was tested, and the protein stability index was 0.679 ± 0.036. ALLGIAGGQAAQ gave a protein stability index of 0.714 ± 0.028. ALLPFLTPLLSR gave a protein stability index of 0.561 ± 0.054. Work on ALLPLPPSPSLL yielded a protein stability index of 0.719 ± 0.0097. In the case of ALLPPPRPLPHP, the protein stability index is reported as 0.719 ± 0.014. For ALLTWIFTCIHI, the protein stability index was 0.571 ± 0.039. In the case of ALPAGLRDLPRP, the protein stability index is reported as 0.586 ± 0.025. ALPCLSPVLPFL gave a protein stability index of 0.729 ± 0.014. With ALPPPPPPSPLL the protein stability index was 0.642 ± 0.035. Work on ALPPSPLLPTLP yielded a protein stability index of 0.702 ± 0.062. For ALSELSIDISHI, the protein stability index was 0.632 ± 0.067. For ALSFFGSCCLPF, the protein stability index was 0.748 ± 0.014. ALSGSFVSWLGG was tested, and the protein stability index was 0.689 ± 0.061. ALSLPFERVRDT showed a protein stability index of 0.692 ± 0.022. Sequence ALTALQTFRITL has a protein stability index of 0.638 ± 0.014. With ALWGHSWHSSLR the protein stability index was 0.713 ± 0.015. For AMAMSSGQCFSS, the protein stability index was 0.67674 ± 0.00043. AMSSVRCRLWPM showed a protein stability index of 0.761 ± 0.034. Work on ANECYAEDREIR yielded a protein stability index of 0.69 ± 0.027. Sequence ANQKRTKQQHRR has a protein stability index of 0.722 ± 0.01. ANRLNASYQVSD gave a protein stability index of 0.6982 ± 0.0038. Work on APCRSLLADLAL yielded a protein stability index of 0.736 ± 0.036. In the case of APDLAVWNLGPH, the protein stability index is reported as 0.68899 ± 0.00041. With APFLDRSSPRSF the protein stability index was 0.707 ± 0.15. Sequence APKCRRRNSSGL has a protein stability index of 0.68 ± 0.057. APKPPPPPPPLP gave a protein stability index of 0.709 ± 0.02. In the case of APLPPLRPPPSA, the protein stability index is reported as 0.687 ± 0.043. In the case of APNAGPPTRSHR, the protein stability index is reported as 0.737 ± 0.086. APNGTPPLSLAS showed a protein stability index of 0.646 ± 0.017. Sequence APPARSPPPPRP has a protein stability index of 0.7216 ± 0.0026. With APPFRYLNSVSC the protein stability index was 0.66 ± 0.034. In the case of APPPALHPPPPH, the protein stability index is reported as 0.688 ± 0.054. Work on APPPLPPLPPSP yielded a protein stability index of 0.727 ± 0.2. In the case of APPPPGPLPPPS, the protein stability index is reported as 0.698 ± 0.025. In the case of APPPPPPLLLSF, the protein stability index is reported as 0.626 ± 0.038. Work on APPPPPPPPRPL yielded a protein stability index of 0.642 ± 0.041. With APPPPQSRASSP the protein stability index was 0.7379 ± 0.0052. With APPPPSLPVPST the protein stability index was 0.739 ± 0.015. In the case of APPPSVCPRFPI, the protein stability index is reported as 0.796 ± 0.012. APRFLGLLCPLL showed a protein stability index of 0.655 ± 0.0089. In the case of APRIILTCRSLT, the protein stability index is reported as 0.5 ± 0.1. APRLRRHPPHEP was tested, and the protein stability index was 0.696 ± 0.0079. APSPPPRISAWL showed a protein stability index of 0.749 ± 0.045. Work on APSPSPPPPLPN yielded a protein stability index of 0.685 ± 0.058. Sequence APSQGPSRPGVV has a protein stability index of 0.708 ± 0.038. APTPACTRPSVA showed a protein stability index of 0.693 ± 0.033. APTPPPVLLTPP was tested, and the protein stability index was 0.6694 ± 0.0063. APTRPPRPNLFH gave a protein stability index of 0.625 ± 0.018. For APVGTPARPSLS, the protein stability index was 0.725 ± 0.016. Work on APVLSVSFFSFL yielded a protein stability index of 0.718 ± 0.013. AQPGRLHLSCES showed a protein stability index of 0.688 ± 0.052. In the case of ARAAQPVHFLNL, the protein stability index is reported as 0.715 ± 0.059. Work on ARAPPLPPPPAL yielded a protein stability index of 0.698 ± 0.0076. ARGARTCDLIRW was tested, and the protein stability index was 0.717 ± 0.035. In the case of ARLHIPSLLPAS, the protein stability index is reported as 0.6798 ± 0.0057. ARPLPPSLPPPP showed a protein stability index of 0.7356 ± 0.0046. With ARPVSRWCEASY the protein stability index was 0.645 ± 0.025. ARQSVYNDLVYV was tested, and the protein stability index was 0.582 ± 0.0065. ARRPHSPLCTTR showed a protein stability index of 0.7101 ± 0.00075. In the case of ARRTSAGVWCTA, the protein stability index is reported as 0.705 ± 0.04. ARSLPSPTLPFL gave a protein stability index of 0.697 ± 0.058. ARSQTGRTYFSP was tested, and the protein stability index was 0.694 ± 0.062. In the case of ARTRRPTPGRPI, the protein stability index is reported as 0.719 ± 0.066. With ARVAFARLPNVC the protein stability index was 0.66 ± 0.016. Sequence ARVIISGYWILY has a protein stability index of 0.519 ± 0.048. With ARVRAQIRDGRT the protein stability index was 0.6403 ± 0.0021. ASEKFGIMSTML showed a protein stability index of 0.662 ± 0.045. In the case of ASGSLGQIFSGL, the protein stability index is reported as 0.699 ± 0.026. Sequence ASHPESHIAWPA has a protein stability index of 0.691 ± 0.03. Work on ASLLSCRLPCLC yielded a protein stability index of 0.518 ± 0.026. ASPFGFLFCCGG gave a protein stability index of 0.654 ± 0.025. In the case of ASPLFPLPPPPP, the protein stability index is reported as 0.71 ± 0.004. ASPPPEVCLSHR showed a protein stability index of 0.682 ± 0.0092.
